Data from article PMC3876986, “The Velvet Family of Fungal Regulators Contains a DNA-Binding Domain Structurally Similar to NF-κB”.
Each block holds one molecule with its values, some of them ahead of it.

Experiments:
[1] = biological target: VosA_(1–190) dead, quadruple mutant of VosA with the mutations K37A, K39A, R41A, and K42A (A. nidulans); experiment: SEC-MALS; size exclusion chromatography and subsequent mass determination using MALS
[2] = biological target: VosA_(1–190), minimal velvet domain of VosA encompassing residues 1–190 (A. nidulans); experiment: SEC; Superdex 200 (16/60) gel filtration column; elution volumes compared
[3] = biological target: VosA_(1–190), minimal velvet domain of VosA encompassing residues 1–190 (A. nidulans); experiment: SEC-MALS; size exclusion chromatography and subsequent mass determination using MALS
VosA full-length = biological target: T1, VosA full-length (Aspergillus nidulans, UniProt Q5BBX1 1-430); experiment: EMSA; EMSA: 10 mM HEPES/NaOH pH 7.4, 150 mM NaCl, ~53 pmol DNA in 10 ul, RT 15 min; DNA:protein molar ratios 1:0.3 to 1:9; 6% PAGE, 0.5% TBE, ethidium bromide; settings: protein: recombinant; tags: GST (N-terminal, pGEX-5X-1); chain copies: 2; blunt
T1 sequence: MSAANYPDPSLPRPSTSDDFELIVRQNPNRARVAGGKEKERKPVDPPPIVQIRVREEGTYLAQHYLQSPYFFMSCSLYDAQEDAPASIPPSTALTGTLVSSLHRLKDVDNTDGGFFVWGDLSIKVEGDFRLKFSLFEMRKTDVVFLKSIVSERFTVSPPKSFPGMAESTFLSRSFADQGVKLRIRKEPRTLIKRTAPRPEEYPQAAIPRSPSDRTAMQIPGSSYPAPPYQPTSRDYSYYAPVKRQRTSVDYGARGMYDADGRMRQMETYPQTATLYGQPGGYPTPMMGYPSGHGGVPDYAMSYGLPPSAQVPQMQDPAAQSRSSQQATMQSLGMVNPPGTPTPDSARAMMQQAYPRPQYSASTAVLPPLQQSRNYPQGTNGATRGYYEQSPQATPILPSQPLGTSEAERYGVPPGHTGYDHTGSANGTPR

VosA_N = biological target: T2, VosA_N (Aspergillus nidulans, UniProt Q5BBX1 1-216); experiment: as above; settings: protein: recombinant; tags: GST (N-terminal, pGEX-4T-3); chain copies: 2; blunt
T2 sequence: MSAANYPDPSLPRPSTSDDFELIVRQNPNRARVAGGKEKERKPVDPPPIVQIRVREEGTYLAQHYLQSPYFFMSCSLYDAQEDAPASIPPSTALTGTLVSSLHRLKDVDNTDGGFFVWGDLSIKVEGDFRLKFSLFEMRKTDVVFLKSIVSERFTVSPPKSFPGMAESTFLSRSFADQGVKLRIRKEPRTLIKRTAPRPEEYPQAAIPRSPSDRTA

VelB = VelB (Aspergillus nidulans, UniProt C8VTS4 1-369); experiment: as above; settings: protein: recombinant; tags: His6 (C-terminal); blunt
VosA1-190 (VosA_cryst) = biological target: T3, VosA1-190 (VosA_cryst) (Aspergillus nidulans, UniProt Q5BBX1 1-190); experiment: EMSA; weaker than VosA_N; EMSA: 10 mM HEPES/NaOH pH 7.4, 150 mM NaCl, ~53 pmol DNA in 10 ul, RT 15 min; DNA:protein molar ratios 1:0.3 to 1:9; 6% PAGE, 0.5% TBE, ethidium bromide; settings: protein: recombinant; tags: Strep-tag (C-terminal); chain copies: 2; blunt
T3 sequence: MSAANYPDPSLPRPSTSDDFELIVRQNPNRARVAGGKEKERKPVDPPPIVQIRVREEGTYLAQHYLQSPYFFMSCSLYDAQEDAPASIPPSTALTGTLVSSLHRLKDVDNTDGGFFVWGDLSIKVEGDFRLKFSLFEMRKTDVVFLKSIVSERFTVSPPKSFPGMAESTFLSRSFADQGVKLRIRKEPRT

VeA1-224 = biological target: T4, VeA1-224 (Aspergillus nidulans, UniProt C8VTV4 1-224); experiment: EMSA; binds as well as VosA1-190; EMSA: 10 mM HEPES/NaOH pH 7.4, 150 mM NaCl, ~53 pmol DNA in 10 ul, RT 15 min; DNA:protein molar ratios 1:0.3 to 1:9; 6% PAGE, 0.5% TBE, ethidium bromide; settings: protein: recombinant; tags: Strep-tag (C-terminal); blunt
T4 sequence: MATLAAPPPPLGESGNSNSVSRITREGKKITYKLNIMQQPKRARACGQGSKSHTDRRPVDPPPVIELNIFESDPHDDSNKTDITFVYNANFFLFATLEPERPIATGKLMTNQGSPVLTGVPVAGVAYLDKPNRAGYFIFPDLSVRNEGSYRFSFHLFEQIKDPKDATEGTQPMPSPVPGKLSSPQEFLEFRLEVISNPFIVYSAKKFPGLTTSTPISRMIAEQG

Sequence of VelB (C8VTS4 whole entry): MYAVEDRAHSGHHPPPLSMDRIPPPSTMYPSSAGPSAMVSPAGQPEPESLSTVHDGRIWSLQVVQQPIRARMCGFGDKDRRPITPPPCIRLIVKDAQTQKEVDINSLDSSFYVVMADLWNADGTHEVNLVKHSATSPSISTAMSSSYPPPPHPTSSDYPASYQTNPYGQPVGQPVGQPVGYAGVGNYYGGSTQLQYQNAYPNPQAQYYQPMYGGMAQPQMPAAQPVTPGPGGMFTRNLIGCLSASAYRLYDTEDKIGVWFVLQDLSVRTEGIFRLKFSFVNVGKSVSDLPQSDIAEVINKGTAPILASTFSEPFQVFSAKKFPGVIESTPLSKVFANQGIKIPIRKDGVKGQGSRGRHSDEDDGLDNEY

stoichiometry N [1]: 2
Molecule: VosA_(1–190) dead, quadruple mutant of VosA with the mutations K37A, K39A, R41A, and K42A (domain or fragment)

stoichiometry N [2]: 2
stoichiometry N [3]: 2
Molecule: VosA_(1–190), minimal velvet domain of VosA encompassing residues 1–190 (domain or fragment)

B1: brlA 35 bp probe (OHS301/302) (dsDNA)
DNA 1: ATTCGGCGACTAGGATCTTACTGGCCGCGGCCGAG
DNA 2: CTCGGCCGCGGCCAGTAAGATCCTAGTCGCCGAAT
binding result (VosA full-length): binds
binding result (VosA_N): binds
binding result (VelB): no binding
binding result (VosA1-190 (VosA_cryst)): binds
binding result (VeA1-224): binds
